Assay results taken from article PMC12626770 (Protein Science : A Publication of the Protein Society, 2025).

Target: T1, Human transferrin receptor 1 (TfR), avi-tagged, biotinylated (human, UniProt P02786 101-760)
T1 construct: also called biotinylated TfR
Assay: flow cytometry on cells; yeast surface display titration; varied TfR concentration, normalized MFU fitted non-linearly, averaged from three experiments; apparent Kd
Conditions: one partner purified

T1 sequence (P02786 101-760): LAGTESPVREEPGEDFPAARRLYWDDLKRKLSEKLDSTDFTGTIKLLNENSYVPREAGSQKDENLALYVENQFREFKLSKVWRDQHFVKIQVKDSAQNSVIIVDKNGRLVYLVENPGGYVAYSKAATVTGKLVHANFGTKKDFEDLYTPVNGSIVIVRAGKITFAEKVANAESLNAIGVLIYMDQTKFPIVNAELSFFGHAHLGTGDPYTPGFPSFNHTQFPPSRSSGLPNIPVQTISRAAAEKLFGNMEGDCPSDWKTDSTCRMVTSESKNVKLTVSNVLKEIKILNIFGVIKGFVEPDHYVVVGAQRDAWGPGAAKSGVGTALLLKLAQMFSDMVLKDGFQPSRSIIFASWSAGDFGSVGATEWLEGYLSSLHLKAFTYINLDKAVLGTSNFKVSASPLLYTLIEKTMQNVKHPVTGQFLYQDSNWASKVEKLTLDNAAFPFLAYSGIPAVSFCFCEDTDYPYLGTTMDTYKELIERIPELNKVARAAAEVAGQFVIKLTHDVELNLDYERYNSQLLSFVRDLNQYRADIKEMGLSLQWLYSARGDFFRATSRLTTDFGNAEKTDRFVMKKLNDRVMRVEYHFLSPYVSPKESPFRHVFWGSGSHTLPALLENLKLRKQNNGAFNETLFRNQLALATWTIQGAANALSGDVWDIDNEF

B1: TB14.3A T78I (S4.4), yeast surface displayed (designed binder)
chain: MEKRFYVLLIIVEDRKKAYRQVNELLHNFSEYILLRMGQDHRERYQSTIALVLKVDNDAIGALSGKLGQISGVKVMTIPEKRGSLE
modifications: biotinylated
For B1, the Kd was 305 ± 55 nM.
